Measurements: publication PMC3087855 (Nature structural & molecular biology, 2011)

Biological target: the molecule itself
Assay: crystal structure

B1: bacteriophage P22 portal protein core (residues 1-602) (domain or fragment, UniProt P26744 1-602, looked up)
chain: MADNENRLESILSRFDADWTASDEARREAKNDLFFSRVSQWDDWLSQYTTLQYRGQFDVVRPVVRKLVSEMRQNPIDVLYRPKDGARPDAADVLMGMYRTDMRHNTAKIAVNIAVREQIEAGVGAWRLVTDYEDQSPTSNNQVIRREPIHSACSHVIWDSNSKLMDKSDARHCTVIHSMSQNGWEDFAEKYDLDADDIPSFQNPNDWVFPWLTQDTIQIAEFYEVVEKKETAFIYQDPVTGEPVSYFKRDIKDVIDDLADSGFIKIAERQIKRRRVYKSIITCTAVLKDKQLIAGEHIPIVPVFGEWGFVEDKEVYEGVVRLTKDGQRLRNMIMSFNADIVARTPKKKPFFWPEQIAGFEHMYDGNDDYPYYLLNRTDENSGDLPTQPLAYYENPEVPQANAYMLEAATSAVKEVATLGVDTEAVNGGQVAFDTVNQLNMRADLETYVFQDNLATAMRRDGEIYQSIVNDIYDVPRNVTITLEDGSEKDVQLMAEVVDLATGEKQVLNDIRGRYECYTDVGPSFQSMKQQNRAEILELLGKTPQGTPEYQLLLLQYFTLLDGKGVEMMRDYANKQLIQMGVKKPETPEEQQWLVEAQQAKQG
modifications: selenomethionine derivatized (methionines replaced by selenomethionine)
Q: Which “stoichiometry N” value does the source give for B1 here?
A: 12
